Measurements taken from paper PMC9352664 (Nature Communications, 2022).

Key:
[1] = molecular target: T1, HiSiaP (P-domain) (Haemophilus influenzae, UniProt P44542, S83R); conditions: read-out: affinity; 50 mM Tris, 50 mM NaCl, pH 8; one approximate value printed for all three mutants
T1 construct: gene siaP

[2] = molecular target: T2, HiSiaP (P-domain) (Haemophilus influenzae, UniProt P44542, D81R); conditions: read-out: affinity; 50 mM Tris, 50 mM NaCl, pH 8; one approximate value printed for all three mutants
T2 construct: gene siaP

[3] = molecular target: T3, HiSiaP (P-domain) (Haemophilus influenzae, UniProt P44542, E195R); conditions: read-out: affinity; 50 mM Tris, 50 mM NaCl, pH 8; one approximate value printed for all three mutants
T3 construct: gene siaP

[4] = molecular target: HiSiaQM K273C-biotin (Haemophilus influenzae) (UniProt P44543); assay: SPR
[5] = molecular target: HiSiaQM (wild type) (Haemophilus influenzae) (UniProt P44543); assay: single-molecule TIRF microscopy on solid-supported bilayers; HiSiaQM in DOPC solid-supported bilayers, AF-647-labelled P-domain without sialic acid; 20 mM HEPES, 150 mM NaCl, pH 7.4
[6] = molecular target: T4, HiSiaQM K273C-biotin (Haemophilus influenzae, UniProt P44543, Maleimide-PEG2-biotin on the introduced cysteine K273C)
T4 chain: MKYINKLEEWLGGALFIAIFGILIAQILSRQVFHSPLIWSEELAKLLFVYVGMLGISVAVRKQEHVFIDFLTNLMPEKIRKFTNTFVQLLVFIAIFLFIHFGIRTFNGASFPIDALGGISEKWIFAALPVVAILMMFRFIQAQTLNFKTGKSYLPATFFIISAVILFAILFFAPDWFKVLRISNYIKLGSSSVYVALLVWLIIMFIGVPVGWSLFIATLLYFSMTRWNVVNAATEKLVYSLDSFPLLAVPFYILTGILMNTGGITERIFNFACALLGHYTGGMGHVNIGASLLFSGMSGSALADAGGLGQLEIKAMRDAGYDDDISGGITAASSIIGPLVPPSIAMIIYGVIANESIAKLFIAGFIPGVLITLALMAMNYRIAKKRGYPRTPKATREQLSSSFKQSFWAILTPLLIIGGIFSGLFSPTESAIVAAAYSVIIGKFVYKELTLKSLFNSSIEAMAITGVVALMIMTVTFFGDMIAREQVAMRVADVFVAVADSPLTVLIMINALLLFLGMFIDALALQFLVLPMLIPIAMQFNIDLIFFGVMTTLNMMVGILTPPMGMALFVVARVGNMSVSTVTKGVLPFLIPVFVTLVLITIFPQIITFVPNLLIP

[7] = molecular target: T5, HiSiaQM (wild type) (Haemophilus influenzae, UniProt P44543); assay: single-molecule TIRF microscopy on solid-supported bilayers; HiSiaQM in DOPC solid-supported bilayers pre-incubated with unlabelled VHHQM3 for at least 30 min, then AF-647-labelled P-domain added; conditions: both partners purified
T5 construct: also called QM-domains; native QM-domains

[8] = molecular target: T5, HiSiaQM (wild type); assay: single-molecule TIRF microscopy on solid-supported bilayers; HiSiaQM in DOPC solid-supported bilayers stained with VHHQM3-AF-555, incubated at least 30 min, bilayer washed 5 times; conditions: both partners purified

## CC(=O)N[C@H]1[C@H]([C@H](O)[C@H](O)CO)OC(O)(C(=O)O)C[C@@H]1O (stereo partly shown) [sialic acid]
[1]
  Kd: ~50 nM
[2]
  Kd: ~50 nM
[3]
  Kd: ~50 nM

## HiSiaP (wild type) (from UniProt P44542 24-329) (natural protein)
[4]
  Kd: 1000 nM

## HiSiaP K254C labelled with AF-647 (from UniProt P44542) (natural protein; other documents disagree on this pair)
[5]
  reduction of P–QM binding events in the absence of sialic acid: 50%

B1: VHHQM7 (VHH)
VHH: QVQLVESGGGLVQPGGSLRLSCAASGFTLSYHAIGWFRQAPGKEREGVSFISSSGSSTNYADSVKGRFTISKDNAKNTVYLQMDSLKPEDTAVYYCARSAAYGSSWLNPSRYDYWGQGTQVTVSS
[6]
  Kd: 4.88 nM

B2: VHHQM2 (VHH)
VHH: QVQLVESGGGLVQPGESLRLSCAASGSTFSSYGMSWVRQAPRKGPEWVSSISASGTLTRYADFVKGRFTVSRDNAKNTLFLQMNSLKPEDTALYYCARGGAPSVVYNRHDWGQGTQVTVSS
[6]
  Kd: 9.83 nM

B3: VHHQM5 (VHH)
VHH: QVQLVESGGGLVQPGGSLRLSCATSRFTLNYYDIGWFRQAPGKEREGVSCITSSGGNTNYADSVKGRFTISRDNAKNTVYLQMNSLKPEDTAIYYCAAAKYGSAWPCSSMPLRDFGSWGQGTQVTVSS
[6]
  Kd: 1.06 nM

B4: VHHQM9 (VHH)
VHH: QLQLVESGGRSVQAGGSLRLSCAASGRAFTMAWFRQAPGKEREFVAARTWPVEYGYYADSVKDRFTISRDNAKNILYLQMTSLHPEDTAMYYCAASTANRDSVNVRFSDQYAYWGPGTQVTVSV
[6]
  Kd: 0.36 nM

B5: VHHQM4 (VHH)
VHH: QVQLVETGGGLVQPGGSLRLSCAASAFTYDNYGIGWFRQAPGKEREGVSCISSSGGTVNYADSVKGRFTISRDNAKNTVYLQMNSLKPEDTAVYYCAALKYGSSCRFLRAANFGSWGQGTRVTVSS
[6]
  Kd: 10.4 nM

B6: VHHQM6 (VHH)
VHH: QLQLVESGGGLVQAGGSLRLSCTASRVTLNYHDIGWFRQAPGKEREGVSYISSSGGSTKYADFVKGRFTISRDNAKNTVYLQMNSLKPEDTAVYYCARSAAYGSSWLNPSRYDYWGQGTQVTVSS
[6]
  Kd: 0.64 nM

B7: VHHQM3 (VHH)
VHH: QLQLVETGGGLVQPGGSLRLSCTASRVTLDYHDIGWFRQAPGKEREGVSYISSSGGSTNYADSVKGRFTISRDNAKNTVYLQMNSLKPEDTAVYYCARSSAYGSSWLNPSRYDYWGQGTQVTVSS
[7]
  binding result: binds

B8: VHHQM3 S85C labelled with AF-555 (VHH)
VHH: QLQLVETGGGLVQPGGSLRLSCTASRVTLDYHDIGWFRQAPGKEREGVSYISSSGGSTNYADSVKGRFTISRDNAKNTVYLQMNCLKPEDTAVYYCARSSAYGSSWLNPSRYDYWGQGTQVTVSS
[8]
  binding result: binds
